Target: RBP4 (retinol binding protein 4) (Homo sapiens, UniProt P02753 19-201)
Assay: aptamer-antibody sandwich chemiluminescence on streptavidin wells; 2 mM Mg2+, 1 mM Ca2+; linear range 0.001-2 ng/mL, LOD 951 fg/mL; Binding buffer 20 mM Tris-HCl pH 7.6, 100 mM NaCl, 2 mM MgCl2, 5 mM KCl, 1 mM CaCl2, 0.02% Tween-20; RBP4 1 h (temperature not stated), reporter antibody step 1

B1: RBA (RBP4 aptamer), biotin-T10 (ssDNA)
DNA: TTTTTTTTTTATACCAGCTTATTCAATTACAGTAGTGAGGGGTCCGTCGTGGGGTAGTTGGGTCGTGGAGATAGTAAGTGCAATCT
B1: binds.
